In general, stoichiometry N refers to a count of units in the complex or per binding partner.

Sequences and labels used below:
B2: RNase E (628-843) (domain or fragment, E. coli, UniProt P21513 628-843, looked up)
chain: ERTEGSDNREENRRNRRQAQQQTAETRESRQQAEVTEKARTADEQQAPRRERSRRRNDDKRQAQQEAKALNVEEQSVQETEQEERVRPVQPRRKQRQLNQKVRYEQSVAEEAVVAPVVEETVAAEPIVQEAPAPRTELVKVPLPVVAQTAPEQQEENNADNRDNGGMPRRSRRSPRHLRVSGQRRRRYRDERYPTQSPMPLTVACASPELASGKVW

Test [1] addresses B2. The test can be described thus: SEC + cross-linking + native MS.
The target of test [2] is T1, RNA helicase B (RhlB), full-length helicase (E. coli, UniProt P0A8J8 1-421).
T1 sequence (looked up): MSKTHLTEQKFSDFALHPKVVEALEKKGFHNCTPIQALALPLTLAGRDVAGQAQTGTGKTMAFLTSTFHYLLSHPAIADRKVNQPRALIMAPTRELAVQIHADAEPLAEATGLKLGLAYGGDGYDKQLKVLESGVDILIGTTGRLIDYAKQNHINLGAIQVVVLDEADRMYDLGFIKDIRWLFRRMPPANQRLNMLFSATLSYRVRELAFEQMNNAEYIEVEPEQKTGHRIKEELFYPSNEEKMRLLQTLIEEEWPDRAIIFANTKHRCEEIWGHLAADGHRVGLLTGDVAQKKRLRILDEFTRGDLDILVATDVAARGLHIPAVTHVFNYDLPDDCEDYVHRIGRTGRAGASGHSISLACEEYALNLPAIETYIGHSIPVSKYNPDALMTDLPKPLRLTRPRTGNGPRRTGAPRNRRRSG
The test can be described thus: limited proteolysis with native gel and mass spectrometry.

B1: RhlB-CTD, carboxy-terminal domain of RhlB helicase (domain or fragment, E. coli)
chain: MRIKEELFYPSNEEKMRLLQTLIEEEWPDRAIIFANTKHRCEEIWGHLAADGHRVGLLTGDVAQKKRLRILDEFTRGDLDILVATDVAARGLHIPAVTHVFNYDLPDDCEDYVHRIGRTGRAGASGHSISLACEEYALNLPAIETYIGHSIPVSKYNPDALMTDLPKPLRLTRPRTGNGPRRTGAPRNRRRSG
For the molecule B1, the “stoichiometry N” value in test [1] was 1 RhlB-CTD per RNase E (628-843).
On to B2, for which, in test [2], the binding result is reported as “binds”.

The values are drawn from publication PMC7610992 (Journal of molecular biology, 2006).
